Test [1] concerns the target full-length Avi-tagged Gαt, P04695. As to the kind of experiment: BLI (steady-state binding curve). As to conditions: chain shown with the change; Avi-tagged Gαt coupled to a streptavidin biosensor; parent: 24 nM.
The target is the same in test [2]. As to the kind of experiment: BLI (steady-state). As to conditions: chain shown with the change.

Our source for the Kd values is PMC6625990, “Structural underpinnings of Ric8A function as a G-protein α-subunit chaperone and guanine-nucleotide exchange factor” (Nature Communications, 2019).

Positions count from the first letter of the chain named. Numbers in names are those of the source.

Broadly, the Kd is the free concentration of one partner at which half of the binding sites on the other are occupied at equilibrium, for simple one-to-one binding.

full-length Avi-tagged Gαt, P04695, sequence (P04695 whole entry): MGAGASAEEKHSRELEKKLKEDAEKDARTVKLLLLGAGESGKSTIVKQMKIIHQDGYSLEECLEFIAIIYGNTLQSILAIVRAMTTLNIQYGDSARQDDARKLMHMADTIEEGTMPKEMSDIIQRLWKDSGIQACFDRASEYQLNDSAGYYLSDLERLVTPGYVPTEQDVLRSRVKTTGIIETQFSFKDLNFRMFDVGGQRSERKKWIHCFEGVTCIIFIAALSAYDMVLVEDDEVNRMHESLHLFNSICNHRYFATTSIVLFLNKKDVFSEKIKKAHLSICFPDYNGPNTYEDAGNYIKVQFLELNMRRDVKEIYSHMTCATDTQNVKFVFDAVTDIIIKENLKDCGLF

B1: bovine Ric8A1–492, Q5E9J8 F169R (protein)
chain: MEPRAVADALETGEEDVVMEALRAYNRENSQSFTFDDAQQEDRKRLAKLLVSVLEQGLPPSRRVIWLQSIRILSRDRSCLDSFTSRRSLQALACYAGISASQGSVPEPLNMDVVLESLKCLCNLVLSSPVAQALAAEAGLVVRLAERVGLCRQSSFPHDVQFFDLRLLRLLTALRTDVRQQLFQELQGVRLLTRALELTLGMTEGERHPELLPPQETERAMEILKVLFNITFDSIKREVDEEDAALYRHLGTLLRHCVMLAAAGDRTEELHGHAVNLLGNLPVKCLDVLLTLEPHEGSLEFLGVNMDVIRVLLSFMEKRLHQTHRLKESVAPVLSVLTECARMHRPARKFLKAQVLPPLRDVRTRPEVGELLRNKLVRLMTHLDTDVKRVAAEFLFVLCSESVPRFIKYTGYGNAAGLLAARGLMAGGRPEGQYSEDEDTDTDEYKEAKASINPVTGRVEEKPPNPMEGMTEEQKEHEAMKLVNMFDKLSRH
As for B1, the Kd is 1700 nM in test [1] and 1800 nM in test [2].

B2: bovine Ric8A1–492, Q5E9J8 A173W (protein)
chain: B1 chain with R169F, A173W
Regarding B2, the dissociation constant Kd in test [1] and in test [2] was greater than 10000 nM throughout.
